Values of other authors, collected in paper PMC5877629.

Target: infliximab
Assay: sedimentation equilibrium analytical ultracentrifugation

infliximab
Kd: 21 µM
